In patent US20040123349A1 (published 2004):

T1: MBP-SINAT5
T1 sequence: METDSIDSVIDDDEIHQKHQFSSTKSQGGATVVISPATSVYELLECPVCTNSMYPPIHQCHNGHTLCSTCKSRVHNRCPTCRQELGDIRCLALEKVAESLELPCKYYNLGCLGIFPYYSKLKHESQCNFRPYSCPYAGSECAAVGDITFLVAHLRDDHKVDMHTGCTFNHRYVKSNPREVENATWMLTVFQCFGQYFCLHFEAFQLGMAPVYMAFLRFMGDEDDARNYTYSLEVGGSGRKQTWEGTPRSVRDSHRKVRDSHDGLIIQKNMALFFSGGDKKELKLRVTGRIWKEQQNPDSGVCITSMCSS

T2: Myc-NAC1 (Arabidopsis, UniProt Q84TE6 1-324)
T2 construct: Product of the 35S-6xMyc-NAC1 transgene in Arabidopsis thaliana; immunoprecipitated with anti-Myc antibody; also called 6xMyc-NAC1; Myc-tagged NAC1; not shown: 6xMyc tag
T2 sequence (looked up): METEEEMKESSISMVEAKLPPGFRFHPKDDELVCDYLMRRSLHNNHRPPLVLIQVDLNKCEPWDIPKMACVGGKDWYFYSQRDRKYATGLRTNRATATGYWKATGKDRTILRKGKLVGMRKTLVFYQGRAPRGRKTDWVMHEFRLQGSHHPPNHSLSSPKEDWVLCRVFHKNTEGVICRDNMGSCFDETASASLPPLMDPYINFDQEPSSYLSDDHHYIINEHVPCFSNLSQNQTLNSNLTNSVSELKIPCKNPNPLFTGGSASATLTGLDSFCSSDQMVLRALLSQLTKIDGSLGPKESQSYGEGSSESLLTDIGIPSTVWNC

T3: Myc-NAC1, Q84TE6
T3 chain: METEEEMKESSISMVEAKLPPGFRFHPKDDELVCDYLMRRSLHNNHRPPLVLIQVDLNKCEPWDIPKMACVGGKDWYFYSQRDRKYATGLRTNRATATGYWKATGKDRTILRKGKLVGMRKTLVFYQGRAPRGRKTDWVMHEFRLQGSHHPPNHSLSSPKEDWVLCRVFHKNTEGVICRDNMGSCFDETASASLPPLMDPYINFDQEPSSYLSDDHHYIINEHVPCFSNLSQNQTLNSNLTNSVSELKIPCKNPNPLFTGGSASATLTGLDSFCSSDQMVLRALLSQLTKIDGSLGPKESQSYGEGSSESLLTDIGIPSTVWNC


Tests used:
MBP-SINAT5 = system: T1, MBP-SINAT5
Myc-NAC1 = target: T2, Myc-NAC1; experiment: immunoprecipitation with anti-Myc from roots of double transgenic plants, Western blot with anti-SINAT5
Protocol: Western and Northern blot analyses. Antibody to SINAT5 was raised in rabbits using as an antigen the synthetic […] peptide […] (SEQ ID NO:5) corresponding to amino acid residues 3 to 18 of SINAT5 polypeptide (SEQ ID NO:1). Antibodies to c-Myc (SC40 and SC40-AC) and actin (SC1616) from Santa Cruz Biotechnology were used for immunoprecipitation and/or Western blotting. Each lane contained 10 or 20 μg protein. RNA extraction was performed by RNeasyR Plant Mini kit (Qiagene). Northern blot analysis was described previously²⁰, using as probes a NAC1 cDNA fragment encoding the NAC1 C-terminal region (amino acid 200 to 324) and a SINAT5-specific EcoRI-NdeI fragment. The 18S rRNA was used as a loading control. Each lane contained 10 μg RNA.
SINAT5 affect on expression of NAC1 in roots. Referring now to FIG. 4, there is shown the relationship between SINAT5 and NAC1 expression levels in transgenic plants. […] Root cultures from a myc-NAC1 transgenic line were treated with 50 μM of proteasome inhibitor MG 132 (+) or DMSO (−) for 3 hr. Protein extracts were processed for Western blot analysis. […] Myc-tagged proteins from roots of double transgenic plants were immunoprecipitated with antibodies specific for Myc and processed for Western blot analysis with antibodies specific for SINAT5. […] Total RNAs from the same transgenic lines were analyzed by Northern blot. […]

Myc-NAC1, Q84TE6 = target: T3, Myc-NAC1, Q84TE6

binding result (Myc-NAC1)	Molecule	self-ubiquitylation activity (E3 activity) of WT SINAT5, in vitro ubiquitylation assay (MBP-SINAT5)	in vitro ubiquitylation of myc-NAC1 immunopurified from transgenic plants (Western blot) (Myc-NAC1, Q84TE6)
	MBP-SINAT5 (C49S) mutant	the C49S mutant protein was able to inhibit the self-ubiquitylation activity of the WT SINAT5 when present at a 5-10 fold excess	
binds	SINAT5 (wildtype) (enzyme, GenBank AF480944 is printed for the gene; also called WT SINAT5; SINA of Arabidopsis thaliana 5) METDSIDSVIDDDEIHQKHQFSSTKSQGGATVVISPATSVYELLECPVCTNSMYPPIHQCHNGHTLCSTCKSRVHNRCPTCRQELGDIRCLALEKVAESLELPCKYYNLGCLGIFPYYSKLKHESQCNFRPYSCPYAGSECAAVGDITFLVAHLRDDHKVDMHTGCTFNHRYVKSNPREVENATWMLTVFQCFGQYFCLHFEAFQLGMAPVYMAFLRFMGDEDDARNYTYSLEVGGSGRKQTWEGTPRSVRDSHRKVRDSHDGLIIQKNMALFFSGGDKKELKLRVTGRIWKEQQNPDSGVCITSMCSS		myc-NAC1 can be ubiquitylated by SINAT5 and this reaction is clearly dependent on E1, E2, and SINAT5 as an E3 ligase
